Experimental data as given in paper PMC3324619.

Tests used:
[1] = target: CytERM-EGFP (not stated | Aequorea victoria) (UniProt P00180)
CytERM-TagRFP = CytERM-TagRFP (UniProt P00180)

CytERM-TagRFP, sequence (P00180 whole entry): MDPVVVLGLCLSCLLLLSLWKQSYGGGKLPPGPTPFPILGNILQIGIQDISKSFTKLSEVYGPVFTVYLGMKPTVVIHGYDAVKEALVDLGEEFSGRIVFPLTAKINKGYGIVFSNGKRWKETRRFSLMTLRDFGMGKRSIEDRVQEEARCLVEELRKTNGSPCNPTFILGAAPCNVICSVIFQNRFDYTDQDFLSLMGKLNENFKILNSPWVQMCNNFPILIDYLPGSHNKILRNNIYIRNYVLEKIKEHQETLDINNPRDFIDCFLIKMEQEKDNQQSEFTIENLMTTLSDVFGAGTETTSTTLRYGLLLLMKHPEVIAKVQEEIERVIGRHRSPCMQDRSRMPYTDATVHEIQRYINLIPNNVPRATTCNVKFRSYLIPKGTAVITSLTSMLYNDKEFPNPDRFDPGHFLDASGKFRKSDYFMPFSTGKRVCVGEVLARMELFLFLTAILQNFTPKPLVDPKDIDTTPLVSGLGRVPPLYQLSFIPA

| OSER assay: average structure area, U2OS cells [1] | OSER assay: ratio of structure MFI to nuclear envelope MFI, U2OS cells (CytERM-TagRFP) | Substance |
| --- | --- | --- |
| 8.7 μm^2 |  | CytERM-EGFP (from UniProt P00180 1-29) |
|  | 3.9 | CytERM-TagRFP (from UniProt P00180 1-29) |
